Test results published in publication PMC2660596.
pKd: −log10 of the molar value.

Target: Bacillus thuringiensis Cry11Ba toxin (Bacillus thuringiensis) (UniProt Q45730)
Test: ELISA

## APN2t, truncated 70-kDa AgAPN2 peptide (residues 228 to 843) (domain or fragment)
  pKd: 8.19
